In patent CN110577594A (UNIV NORTHWEST A&F, dated 2019):

Tests used:
[1] = target: T1, 金黄色葡萄球菌肠毒素B (Staphylococcus aureus, UniProt P01552 28-266); test: direct ELISA, antigen coated, HRP-conjugated nanobody
T1 sequence: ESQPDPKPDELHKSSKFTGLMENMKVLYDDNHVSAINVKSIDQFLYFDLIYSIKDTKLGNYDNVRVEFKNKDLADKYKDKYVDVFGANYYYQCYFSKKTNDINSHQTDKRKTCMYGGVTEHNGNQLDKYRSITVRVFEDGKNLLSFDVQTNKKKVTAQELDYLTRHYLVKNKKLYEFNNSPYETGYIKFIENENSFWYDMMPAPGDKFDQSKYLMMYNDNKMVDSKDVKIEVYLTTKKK

[2] = target: T2, 金黄色葡萄球菌表面蛋白A (Staphylococcus aureus, UniProt P38507 37-477); test: direct ELISA on coated whole S. aureus (ATCC25923, ATCC29213, ATCC26111), HRP-conjugated nanobody
T2 construct: whole, on cells; also called 葡萄球菌蛋白A; spA

B1: 金黄色葡萄球菌肠毒素A纳米抗体A21 (VHH)
VHH: ESGGGSVQAGGSLRLSCAASRNTYSYCSMGWYRQAPGKERELVSSIKSDDRTVYADSVKGRFTISRGNAKNTVHLLMNSLKPEDTAMYYCTFRCLERSGGETRYWGQGTQVTVS
notes: also called Clone A21; A21克隆
- binding result [1]: no binding (tested: 500ng/mL)
- binding result [2]: no binding (tested: 10 7 cfu/mL)
